Drawing on patent US20040146511A1, this text covers molar binding ratio (FIX per mAb), aPTT and aPTTmax/aPTTnormal x 100 % for 2 molecules.

Assay [1] deals with Recombinant human Factor IX (rhFIX, Genetics Institute) (human) (UniProt P00740). Kind of assay: titration microcalorimetry; 106 uM FIX injected into 2 uM mAb.
The next assay deals with human Factor IX (human) (UniProt P00740). The experiment in a line: cell-based or functional assay.
Chain of human Factor IX (human) (P00740 47-461 limits assumed): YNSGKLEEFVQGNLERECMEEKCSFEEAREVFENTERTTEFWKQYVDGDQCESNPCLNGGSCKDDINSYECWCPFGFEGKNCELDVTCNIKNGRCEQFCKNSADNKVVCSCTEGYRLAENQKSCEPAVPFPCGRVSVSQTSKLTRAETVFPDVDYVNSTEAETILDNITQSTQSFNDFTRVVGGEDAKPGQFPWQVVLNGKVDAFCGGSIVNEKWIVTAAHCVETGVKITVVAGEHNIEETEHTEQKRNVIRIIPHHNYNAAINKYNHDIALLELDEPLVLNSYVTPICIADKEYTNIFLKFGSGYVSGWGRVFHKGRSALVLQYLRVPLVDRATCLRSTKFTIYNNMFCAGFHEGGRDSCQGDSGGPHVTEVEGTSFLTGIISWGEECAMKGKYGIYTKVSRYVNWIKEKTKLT

Chain of Recombinant human Factor IX (rhFIX, Genetics Institute) (human) (P00740 47-461 limits assumed): as above

B1: humanized anti-Factor IX monoclonal antibody SB 249417 (antibody, V domains shown)
VH: QVQLVQSGSELKKPGASVKVSCKASGYTFTNYGMNWVRQAPGQGLKWMGWINTRNGKSTYVDDFKGRFVFSLDSSVSTAYLQISSLKADDTAVYYCTREGNMDGYFPFTYWGQGTLVTVSS
VL: QIVLTQSPSSLSASVGDRVTITCRASSSVNYMHWYQQKPGKAPKPWIYATSNLASGVPSRFSGSGSGTDYTFTISSLQPEDIATYYCQQWSINPRTFGQGTKVEIKR
Take B1: the molar binding ratio (FIX per mAb) in assay [1] was found to be 2 FIX per mAb.

B2: murine anti-Factor IX monoclonal antibody BC2 (antibody, from a related filing, mouse IgG2a, V domains shown)
VH: QIQLVQSGPELKKPGETVKISCKASGYTFTNYGMNWVKQAPGKGLKWMGWINTRNGKSTYVDDFKGRFAFSLESSASTANLQIDNLKDEDTATYFCTREGNMDGYFPFTYWGQGTLVTVSA
VL: QIVLSQSPAILSASPGEKVTMTCRASSSVNYMHWYQQKPGSSPKPWIYATSNLASGVPARFSGSGSGTSYSLTISRVEAEDAATYYCQQWSINPRTFGGGTKLEIKR
Consider B2, for which, in the assay with human Factor IX (human), the aPTT at saturating concentrations worked out at 90 s and the aPTTmax/aPTTnormal x 100 % worked out at 350%.
